{"source": "patent US8840886B2", "about": "“Method of treating cancer with DLL4 antagonist and chemotherapeutic agent” (Regeneron Pharmaceuticals, Inc., priority 2009, dated 2014)", "key": {"[1]": {"tested_on": "human VM-Cub1 tumor cells (bladder carcinoma cells)", "assay": "VM-Cub1 bladder carcinoma xenograft tumor growth, REGN421 with cisplatin (Example 1)", "assay_type": "in vivo, mouse", "settings": "for TGI: 3 doses, at day 32; for Euthanized: control cohort euthanized day 32; for TGD: time to 600 mm^3 vs control", "procedure": "The effect of anti-Dll4 antibody (REGN421) in combination with cisplatin (platinol, cis-diamminedichloroplatinum) on tumor growth was evaluated on tumors implanted in Severe Combined Immunodeficiency (SCID) mice expressing a humanized Dll4 protein (humanized Dll4 SCID mice). The humanized Dll4 SCID mouse was made by replacing the entire extracellular domain of the mouse Dll4 gene with the corresponding extracellular region of the human Dll4 gene (7 kb) in embryonic stem (ES) cells. Homozygous hDll4 mice were generated and bred into SCID background.\nEach mouse was implanted subcutaneously (sc) with 1×10^6 human VM-Cub1 tumor cells (bladder carcinoma cells) plus MATRIGEL™ (BD Biosciences, #354234). After the tumors were established in the mice (tumor size of 150-200 mm^3, approximately 14 days after implantation), tumors were measured, randomized and treated with hFc, REGN421, cisplatin, or combination of REGN421 and cisplatin. A total of 45 mice were divided into nine groups (n=5 per cohort). The first group was treated subcutaneously (sc) with hFc at 2 mg/kg; the second and third groups were treated sc with REGN421 at 0.5 and 2 mg/kg, respectively; the fourth and fifth groups were treated intraperitoneally (ip) with cisplatin at 0.5 and 2 mg/kg, respectively; the sixth group was treated sc with REGN421 at 0.5 mg/kg and ip with cisplatin at 0.5 mg/kg; the seventh group was treated sc with REGN421 at 0.5 mg/kg and ip with cisplatin at 2 mg/kg; the eighth group was treated sc with REGN421 at 2 mg/kg and ip with cisplatin at 0.5 mg/kg; and the ninth group was treated sc with REGN421 at 2 mg/kg and ip with cisplatin at 2 mg/kg. REGN421 was administered every 3-4 days starting on day 14 and mice received three doses total. Cisplatin was administered every 24 hours starting on day 14; mice received four doses total.\nTo assess the effects of REGN421 and cisplatin as single agents or in combination treatments, the changes in tumor size were recorded. Tumor growth was measured three days before the initial REGN421 treatment, on the day of each REGN421 treatment (days 14, 17 and 21) and thereafter every 3-4 days until tumors reached ˜600 mm^3 in size. In vivo tumor size was calculated using the formula (length×width^2)/2 (FIG. 1 and Table 1).\nTumor Growth Inhibition, TGI, was determined by calculating the difference in tumor size for treated (T) versus vehicle control (C) tumor at the day the control cohort was euthanized (i.e., at day 32); TGI=[1−(Tfinal−Tinitial)/(Cfinal−Cinitial)]×100.\nTumor growth delay, TGD, was assessed as the difference in days between treated (T) versus control (C) tumors when each cohort reached a specified tumor size. The predetermined tumor size for this experiment was 600 mm^3."}, "[2]": {"tested_on": "human HCT116 tumor cells (CRC)", "assay": "HCT116 colorectal xenograft tumor growth, REGN421 with 5-FU (Example 5)", "assay_type": "in vivo, mouse", "settings": "REGN421 2 mg/kg sc (6 mg/kg total dose)", "procedure": "The effect of anti-Dll4 Ab (REGN421) in combination with 5-FU on tumor growth was evaluated on tumors implanted in humanized Dll4 SCID mice. Each mouse was implanted subcutaneously (sc) with 5×10^6 human HCT116 tumor cells (CRC). After the tumors were established in the mice (tumor size of ˜150 mm^3, 22 days after implantation), tumors were measured and randomized. The mice were then treated with hFc, REGN421, 5-FU or combination of REGN421 and 5-FU. A total of 30 mice were divided into 6 groups (n=5 per cohort). The first group was treated sc with hFc at 2 mg/kg; the second group was treated sc with REGN421 at 2 mg/kg; the third and fourth groups were treated ip with 5-FU at 15 and 25 mg/kg, respectively; the fifth group was treated sc with REGN421 at 2 mg/kg and ip with 5-FU at 15 mg/kg; and the sixth group was treated sc with REGN421 at 2 mg/kg and ip with 5-FU at 25 mg/kg. REGN421 was administered every 3-4 days starting on day 22 and mice received three doses total. 5-FU was administered every 3-4 days starting on day 22 and mice received three doses total.\nTo assess the effects of REGN421 and 5-FU as single agents or in combination, the changes in tumor size (volume) were measured, beginning three days before the initial REGN421 treatment, and then on the day of each agent treatment (days 22, 26, 29) and thereafter every 3-4 days until tumors reach ˜600 mm^3 in size. In vivo tumor size is calculated using the formula (length×width^2)/2 (FIG. 3 and Table 5)."}}, "data": [{"molecule": "REGN421: anti-hDll4 antibody comprising HCVR/LCVR combination of SEQ ID NO:116/118 (antibody, V domains shown) VH: QVQLVESGGGVVQPGRSLRLSCAASGFTFSSYGMHWVRQAPGKGLEWVSFLWYDGTNKNYVESVKGRFTISRDNSKNMLYLEMNSLRAEDTAVYYCARDHDFRSGYEGWFDPWGQGTLVTVSS VL: EIVLTQSPATLSLSPGERATLSCRASQSVSSYLAWYQQKPGQAPRLLIYDASNRATGIPARFSGSGSGTDFTLTISSLEPEDFAVYYCQHRSNWPPTFGGGTKVEIK", "values": [{"measurement": "TGI", "setting": "[1]; REGN421 0.5 mg/kg/dose sc", "result": "−13.7", "unit": "%"}, {"measurement": "Euthanized", "setting": "[1]; REGN421 0.5 mg/kg/dose sc", "result": 32, "unit": "days"}, {"measurement": "TGD", "setting": "[1]; REGN421 0.5 mg/kg/dose sc", "result": 0, "unit": "days"}, {"measurement": "TGI", "setting": "[1]; REGN421 2 mg/kg/dose sc", "result": 83.1, "unit": "%"}, {"measurement": "Euthanized", "setting": "[1]; REGN421 2 mg/kg/dose sc", "result": 44, "unit": "days"}, {"measurement": "TGD", "setting": "[1]; REGN421 2 mg/kg/dose sc", "result": 12, "unit": "days"}, {"measurement": "TGD", "setting": "[2]", "result": 6, "unit": "days"}]}]}
